Results on 2 molecules are retold here after PMC6608616 (IUCrJ, 2019).

First the molecules themselves.
B1: Tryptophan synthase β subunit (TrpB) from Francisella tularensis (enzyme)
chain: MSKLNAYFGEYGGQFVPQILVPALDQLEQEFIKAQADESFKQEFKELLQEYAGRPTALTKTRNIVKNTRTKLYLKREDLLHGGAHKTNQVLGQALLAKRMGKKEIIAETGAGQHGVATALACALLDLKCRVYMGAKDVERQSPNVFRMKLMGAEVIPVHSGSATLKDACNEALRDWSANYSKAHYLLGTAAGPHPFPTIVREFQRMIGEETKQQMLAKEGRLPDAVIACVGGGSNAIGMFADFIDEKNVKLIGVEPAGKGIETGEHGAPLKHGKTGIFFGMKAPLMQNSDGQIEESYSISAGLDFPSVGPQHAHLLAIGRAKYASATDDEALDAFKLLCKKEGIIPALESSHALAHALKLAYEDPNKEQLLVVNLSGRGDKDIFTVHDILKEKGEI
notes: also called FtTrpB; β subunit of FtTrpAB
B2: Tryptophan synthase α subunit (TrpA) from Francisella tularensis (enzyme)
chain: SNAMTNRYTTLFANLEKRNEGAFIPFVTIGDPNKALSFEIIDTLVSSGADALELGIPFSDPLADGPTIQEANIRALESGITPKDCFDILTKIRAKYPHIPIGLLLYANLVYANGIENFYQKCLDAGVDSILIADVPAHESKEFRDIAKKVGIAQIFIAPPDASESTLKQISELGSGYTYLLSRVGVTGTETAANMPVEDVLTKLREYNAPKPVLGFGISKPEQVQQAIKAGAAGAISGSATVKIIQNNISNKQKMLNELTYFVKEMKAATLN
notes: also called FtTrpA; α subunit of FtTrpAB

The data set “crystal structure” deals with the molecule itself. The data set is described as follows: crystal structure.
Data set [1] addresses B1. The data set is described as follows: crystal structure. To be noted: both partners purified.

With B1, the binding result in the data set “crystal structure” is “binds”.

With B2, the binding result in data set [1] is reported as “binds”.
